Consider 4 substances from patent publication US20040229265A1.

Data set [1] has as its target CXCR4 (chemokine receptor CXCR-4) on PM1 cells. Description: flow cytometry, PE-12G5 alone on PM1 cells, 30 min at 4° C. A general note: In flow cytometry, cells or beads pass a laser one at a time.
Data set [2] concerns Rev peptide (Rev34-50, RhdRev) (HIV-1). Kind of data set: FP. To be noted: 10 nM tracer titrated with RNA, 85 mM NaCl, 2 mM KCl, 0.5 mM CaCl2, 0.5 mM MgCl2, 10 mM HEPES pH 7.5.
The next data set deals with Rev34-50 peptide (HIV-1). Particulars: CITED natural ligand affinity quoted for comparison, method not stated; cited from earlier work.
For data set [3], the target named is CXCR4 (chemokine receptor CXCR-4) on PM1 cells. Description: flow cytometry, PE-conjugated isotype control on PM1 cells (non-specific fluorescence).
CXCR4 (chemokine receptor CXCR-4) on PM1 cells, sequence (P61073 whole entry): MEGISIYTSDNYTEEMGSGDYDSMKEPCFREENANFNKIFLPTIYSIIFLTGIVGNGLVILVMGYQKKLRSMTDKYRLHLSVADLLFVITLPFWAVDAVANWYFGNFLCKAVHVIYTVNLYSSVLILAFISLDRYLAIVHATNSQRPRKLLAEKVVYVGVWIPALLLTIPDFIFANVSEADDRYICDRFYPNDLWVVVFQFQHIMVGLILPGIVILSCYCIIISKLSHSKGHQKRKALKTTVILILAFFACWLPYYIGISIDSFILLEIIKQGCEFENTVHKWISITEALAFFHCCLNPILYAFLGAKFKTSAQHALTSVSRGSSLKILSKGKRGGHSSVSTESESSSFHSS
For a further data set, the system named is Tat49-57 peptide (HIV-1). To be noted: CITED natural ligand affinity quoted for comparison, method not stated; cited from earlier work.

Take “anti-CXCR4 mAb, 12G5 (PharMingen, San Diego, Calif.) conjugated to phycoerithrine (PE) (antibody)”: the MFI (median fluorescence intensity) in data set [1] was 451 MFI. Take RRE IIB RNA: the dissociation constant Kd (usually the equilibrium constant for the complex coming apart) in data set [2] (text gives 16 nM) was 16.6 nM; with Rev34-50 peptide (HIV-1), 40 nM. Take “PE-conjugated isotype control mAb (antibody)”: the MFI (median fluorescence intensity) in data set [3] was 30 MFI.

TAR RNA: the Kd in data set [2] (table unit taken from text (7 nM)) was 7.3 nM; with Tat49-57 peptide (HIV-1), 12 nM.
